Reference: article PMC5493754, “Myosin 7 and its adaptors link cadherins to actin” (Nature Communications, 2017)

How the values were obtained:
Assay in all cases: MST; YFP-fused partner constant at 100 nM, non-fluorescent protein titrated (16 two-fold dilutions); 20 mM Hepes pH 7.0, 100 mM NaCl, 1 mM EGTA, 0.5 mM TCEP, 0.05% Tween 20; Monolith NT.115
Details in all cases: both partners purified
[1] = molecular target: T1, Myo7a MF2 G2163S (deafness mutant) (human, UniProt Q13402-1 1702-2215, G2163S)
T1 construct: Myosin 7a, human, MF2, residues 1702-2215 of UniProt Q13402-1, with a deafness missense mutation; source: E. coli, purified similarly as wild type (Histrap, CaptoQ, gel filtration)
T1 sequence (looked up): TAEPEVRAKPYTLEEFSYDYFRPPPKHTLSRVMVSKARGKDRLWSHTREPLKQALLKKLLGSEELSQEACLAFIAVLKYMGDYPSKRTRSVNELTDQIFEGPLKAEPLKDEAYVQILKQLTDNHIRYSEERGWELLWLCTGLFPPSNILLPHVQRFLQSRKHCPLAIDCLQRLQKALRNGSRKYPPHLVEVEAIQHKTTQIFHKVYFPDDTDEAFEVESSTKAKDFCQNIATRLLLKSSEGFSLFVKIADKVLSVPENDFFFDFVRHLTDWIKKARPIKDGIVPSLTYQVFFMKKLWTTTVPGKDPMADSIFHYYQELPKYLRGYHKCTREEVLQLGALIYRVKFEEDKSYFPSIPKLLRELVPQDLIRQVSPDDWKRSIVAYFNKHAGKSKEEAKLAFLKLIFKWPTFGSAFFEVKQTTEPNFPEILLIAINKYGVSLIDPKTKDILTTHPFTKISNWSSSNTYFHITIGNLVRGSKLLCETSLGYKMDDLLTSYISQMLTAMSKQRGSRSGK

[2] = molecular target: T2, Myo7a MF2 G1982R (deafness mutant) (human, UniProt Q13402-1 1702-2215, G1982R)
T2 construct: Myosin 7a, human, MF2, residues 1702-2215 of UniProt Q13402-1, with a deafness missense mutation; source: E. coli, purified similarly as wild type (Histrap, CaptoQ, gel filtration)
T2 sequence (looked up): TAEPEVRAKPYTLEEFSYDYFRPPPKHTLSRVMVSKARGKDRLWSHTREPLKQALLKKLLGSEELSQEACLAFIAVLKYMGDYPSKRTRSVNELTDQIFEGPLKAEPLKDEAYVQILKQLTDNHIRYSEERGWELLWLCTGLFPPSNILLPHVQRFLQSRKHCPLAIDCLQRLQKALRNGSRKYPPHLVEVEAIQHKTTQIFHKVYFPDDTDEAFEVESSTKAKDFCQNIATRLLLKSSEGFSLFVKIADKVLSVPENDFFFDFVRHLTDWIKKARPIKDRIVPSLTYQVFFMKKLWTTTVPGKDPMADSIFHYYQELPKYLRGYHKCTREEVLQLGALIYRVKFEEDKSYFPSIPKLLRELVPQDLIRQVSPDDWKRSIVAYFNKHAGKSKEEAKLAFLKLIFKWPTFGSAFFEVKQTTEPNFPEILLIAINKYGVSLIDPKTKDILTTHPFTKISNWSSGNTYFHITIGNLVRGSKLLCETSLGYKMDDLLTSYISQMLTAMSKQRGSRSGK

[3] = molecular target: T3, Myo7a MF2 G1982E (deafness mutant) (human, UniProt Q13402-1 1702-2215, G1982E)
T3 construct: Myosin 7a, human, MF2, residues 1702-2215 of UniProt Q13402-1, with a deafness missense mutation; source: E. coli, purified similarly as wild type (Histrap, CaptoQ, gel filtration)
T3 sequence (looked up): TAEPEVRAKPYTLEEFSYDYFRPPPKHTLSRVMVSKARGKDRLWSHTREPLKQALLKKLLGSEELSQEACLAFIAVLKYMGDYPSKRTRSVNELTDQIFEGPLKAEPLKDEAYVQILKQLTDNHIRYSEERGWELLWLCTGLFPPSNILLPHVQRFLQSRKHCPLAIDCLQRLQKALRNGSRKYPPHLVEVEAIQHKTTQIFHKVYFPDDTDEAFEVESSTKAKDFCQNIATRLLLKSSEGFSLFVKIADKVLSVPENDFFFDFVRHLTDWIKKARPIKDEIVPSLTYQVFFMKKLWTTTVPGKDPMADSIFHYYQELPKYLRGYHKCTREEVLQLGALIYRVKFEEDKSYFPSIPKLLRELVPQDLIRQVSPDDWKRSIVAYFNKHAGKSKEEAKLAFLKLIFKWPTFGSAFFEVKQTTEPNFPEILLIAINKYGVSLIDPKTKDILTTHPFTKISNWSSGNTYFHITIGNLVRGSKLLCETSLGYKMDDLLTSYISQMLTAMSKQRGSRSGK

Measured: Kd

B1: YFP-Harmonin-a PDZ3c (domain or fragment, human, UniProt Q9Y6N9-1 428-552, looked up)
chain: QDFRKYEEGFDPYSMFTPEQIMGKDVRLLRIKKEGSLDLALEGGVDSPIGKVVVSAVYERGAAERHGGIVKGDEIMAINGKIVTDYTLAEAEAALQKAWNQGGDWIDLVVAVCPPKEYDDELTFF
notes: Harmonin-a1 (USH1C), human, residues 428-552 of UniProt Q9Y6N9-1; also called ^YFPPDZ3c (isoA); source: E. coli BL21 (DE3) Rosetta, purified (Glutathione Sepharose 4B, size-exclusion chromatography)
> 60 µM: all assays above
